Source: the supplement of paper PMC12667976
± gives the standard error.

B1: library; numbered along this chain (parent)
chain: MATDAALRRLLRLHRTEIAVAVDSAFPLLHALADHDVVPEDKFQETLHLKEKEGCPQAFHALLSWLLTQDSTAILDFWRVLFKDYNLERYGRLQPILDSFPKDVDLSQPRKGRKPPAVPKALVPPPRLPTKRKASEEARAAAPAALTPRGTASPGSQLKAKPPKKPESSAEQQRLPLGNGIQTMSASVQRAVAMSSGDVPGARGAVEGILIQQVFESGGSKKCIQVGGEFYTPSKFEDSGSGKNKARSSSGPKPLVRAKGAQGAAPGGGEARLGQQGSVPAPLALPSDPQLHQKNEDECAVCRDGGELICCDGCPRAFHLACLSPPLREIPSGTWRCSSCLQATVQEVQPRAEEPRPQEPPVETPLPPGLRSAGEEVRGPPGEPLAGMDTTLVYKHLPAPPSAAPLPGLDSSALHPLLCVGPEGQQNLAPGARCGVCGDGTDVLRCTHCAAAFHWRCHFPAGTSRPGTGLRCRSCSGDVTPAPVEGVLAPSPARLAPGPAKDDTASHEPALHRDDLESLLSEHTFDGILQWAIQSMARPAAPFPS

Variants of: B1
Assay: AIRE transcriptional activation functional score (insulin promoter-GFP; nonsense median 0, synonymous median 1) (normalised score); higher = higher AIRE activity (more reporter activation)
Settings: with insulin promoter-GFP reporter in HEK293
Description: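 Deep mutational scan of full-length human AIRE (codon-optimized cDNA, DT-POPCode NNN libraries over three regions) integrated at a Bxb1 landing pad in HEK293 cells carrying an insulin core promoter-GFP reporter at a Flp-In site. Cells were sorted for the top 10% GFP about 14 days after transfection. Variant frequency log-ratios (select vs non-select, TileSeq) were rescaled so that the nonsense median is 0 and the synonymous median is 1, then averaged over biological replicates.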

| Variant | AIRE transcriptional activation functional score |
| --- | --- |
| G228V | 0.421 ± 0.28 |
| G228C | 0.71 ± 0.39 |
| G228D | 1.05 ± 0.17 |
| G228R | 1.26 ± 0.3 |
| G228K | 0.799 ± 0.39 |
| G228S | 0.591 ± 0.44 |
| G228Q | -1.12 ± 0.25 |
| G228F | 0.331 ± 0.12 |
| G228N | 1.51 ± 0.18 |
| G228W | -0.356 ± 0.059 |
| G228E | 0.668 ± 0.36 |
| F230Q | 0.665 ± 0.046 |
| F230D | 0.723 ± 0.12 |
| F230V | 0.617 ± 0.11 |
| F230R | 0.603 ± 0.38 |
| F230P | 0.293 ± 0.47 |
| F230S | 0.473 ± 0.15 |
| F230N | 0.425 ± 0.38 |
| F230T | 0.761 ± 0.38 |
| F230K | 0.376 ± 0.08 |
| F230G | 0.617 ± 0.19 |
| F230H | 0.48 ± 0.089 |
| F230M | 0.801 ± 0.15 |
| F230E | 0.377 ± 0.23 |

| Variant | AIRE transcriptional activation functional score |
| --- | --- |
| F230C | 0.611 ± 0.09 |
| F230Y | 0.502 ± 0.27 |
| F230I | 0.507 ± 0.29 |
| F230W | 0.97 ± 0.041 |
| F230L | 0.774 ± 0.16 |
| F230A | 0.596 ± 0.17 |
| E229A | -0.0287 ± 0.2 |
| E229S | 0.662 ± 0.18 |
| E229W | -0.162 ± 0.12 |
| E229M | 0.122 ± 0.069 |
| E229N | 0.433 ± 0.24 |
| E229C | 0.0314 ± 0.21 |
| E229D | 0.886 ± 0.073 |
| E229I | 0.102 ± 0.31 |
| E229F | 0.704 ± 0.12 |
| E229T | -0.101 ± 0.21 |
| E229Y | -0.363 ± 0.21 |
| E229G | 1.15 ± 0.093 |
| E229V | 0.158 ± 0.15 |
| E229Q | 1.13 ± 0.11 |
| E229H | 0.361 ± 0.094 |
| E229P | 0.679 ± 0.25 |
| E229K | 0.571 ± 0.18 |
| E229R | 0.148 ± 0.3 |

| Variant | AIRE transcriptional activation functional score |
| --- | --- |
| E229L | 0.0432 ± 0.24 |
| Q225M | -0.00432 ± 0.073 |
| Q225R | 0.916 ± 0.2 |
| Q225F | -0.00208 ± 0.1 |
| Q225H | 0.951 ± 0.054 |
| Q225S | 0.993 ± 0.35 |
| Q225Y | -0.259 ± 0.17 |
| Q225G | 0.56 ± 0.37 |
| Q225L | -0.23 ± 0.54 |
| Q225V | -0.115 ± 0.27 |
| Q225A | 0.99 ± 0.27 |
| Q225E | 1.13 ± 0.34 |
| Q225K | 1.23 ± 0.028 |
| Q225W | 0.582 ± 0.095 |
| Q225D | 0.269 ± 0.14 |
| Q225I | 0.248 ± 0.23 |
| Q225C | -0.424 ± 0.056 |
| Q225T | 0.688 ± 0.18 |
| Q225P | 0.572 ± 0.47 |
| Q225N | 0.762 ± 0.14 |
| S220I | 0.449 ± 0.49 |
| S220L | 1.04 ± 0.25 |
| S220E | 1.14 ± 0.046 |
| S220V | 0.743 ± 0.84 |

| Variant | AIRE transcriptional activation functional score |
| --- | --- |
| S220D | 0.488 ± 0.084 |
| S220F | 0.305 ± 0.062 |
| S220Y | -0.203 ± 0.11 |
| S220T | 0.905 ± 0.032 |
| S220C | 1.21 ± 0.032 |
| S220R | 1.06 ± 0.37 |
| S220Q | -1.55 ± 0.21 |
| S220G | 0.764 ± 0.19 |
| S220P | -0.127 ± 0.15 |
| S220W | -1.37 ± 0.28 |
| S220A | 0.262 ± 0.063 |
| S220M | 1.16 ± 0.036 |
| F215C | 0.382 ± 0.089 |
| F215Y | 0.54 ± 0.17 |
| F215H | 0.814 ± 0.06 |
| F215V | 0.289 ± 0.41 |
| F215K | -0.187 ± 0.16 |
| F215G | 0.391 ± 0.16 |
| F215D | 0.909 ± 0.29 |
| F215I | 0.64 ± 0.21 |
| F215L | 0.751 ± 0.17 |
| F215M | 0.136 ± 0.083 |
| F215E | 0.601 ± 0.31 |
| F215S | 0.474 ± 0.35 |

| Variant | AIRE transcriptional activation functional score |
| --- | --- |
| F215P | 0.715 ± 0.15 |
| F215W | 0.878 ± 0.036 |
| F215R | 0.351 ± 0.33 |
| F215T | -0.146 ± 0.21 |
| F215A | 0.568 ± 0.53 |
| E216A | 0.655 ± 0.34 |
| E216N | 1.75 ± 0.14 |
| E216K | 1.2 ± 0.18 |
| E216L | 1.42 ± 0.084 |
| E216S | 1.33 ± 0.068 |
| E216R | -0.537 ± 0.11 |
| E216C | 0.558 ± 0.042 |
| E216I | -1.75 ± 0.29 |
| E216G | 1.09 ± 0.12 |
| E216W | 0.395 ± 0.14 |
| E216V | 0.252 ± 0.2 |
| E216Q | 0.964 ± 0.12 |
| E216H | 0.489 ± 0.083 |
| E216D | 0.741 ± 0.24 |
| V226E | 0.0129 ± 0.17 |
| V226C | 0.347 ± 0.12 |
| V226K | 0.148 ± 0.13 |
| V226W | 1.21 ± 0.044 |
| V226I | 0.848 ± 0.29 |

| Variant | AIRE transcriptional activation functional score |
| --- | --- |
| V226L | 1.08 ± 0.24 |
| V226G | 0.814 ± 0.2 |
| V226M | 0.67 ± 0.12 |
| V226Q | 0.554 ± 0.093 |
| V226D | 0.724 ± 0.24 |
| V226P | 1.09 ± 0.3 |
| V226Y | 0.994 ± 0.18 |
| V226R | 0.531 ± 0.26 |
| V226S | 0.403 ± 0.54 |
| V226H | 0.579 ± 0.27 |
| V226N | -0.139 ± 0.091 |
| V226F | 0.889 ± 0.18 |
| V226A | 0.677 ± 0.31 |
| V226T | 0.799 ± 0.36 |
| G218N | 0.111 ± 0.11 |
| G218E | -0.051 ± 0.083 |
| G218R | 1.13 ± 0.25 |
| G218S | 0.817 ± 0.31 |
| G218P | 0.651 ± 0.19 |
| G218V | 1.1 ± 0.18 |
| G218F | 0.259 ± 0.13 |
| G218W | -0.332 ± 0.1 |
| G218A | 1.02 ± 0.25 |
| G218Y | 0.677 ± 0.28 |

| Variant | AIRE transcriptional activation functional score |
| --- | --- |
| G218I | 1.14 ± 0.14 |
| G218M | 1.01 ± 0.069 |
| G218T | 1.11 ± 0.54 |
| G218C | 0.887 ± 0.22 |
| G218H | 1.03 ± 0.086 |
| G218K | 0.888 ± 0.1 |
| G218D | 0.885 ± 0.14 |
| G218Q | -0.344 ± 0.048 |
| G218L | 1.01 ± 0.17 |
| V214F | 1.01 ± 0.2 |
| V214P | 0.238 ± 0.098 |
| V214M | 0.284 ± 0.11 |
| V214W | 0.402 ± 0.049 |
| V214S | 0.447 ± 0.32 |
| V214A | 0.717 ± 0.19 |
| V214R | 0.66 ± 0.11 |
| V214L | 0.413 ± 0.73 |
| V214G | 0.556 ± 0.29 |
| V214C | 1.01 ± 0.054 |
| V214H | 0.137 ± 0.25 |
| V214Y | 1.25 ± 0.04 |
| V214I | 0.735 ± 0.18 |
| V214E | 0.383 ± 0.1 |
